Assays:
[1] = biological target: the molecule itself; experiment: AUC; sedimentation equilibrium, Beckman XL-A, 15,000 rpm, 20°C, Buffer A, 0.4, 0.2 and 0.1 mg protein/mL, absorbance at 278 nm; global fit to a monomer-dimer-tetramer association model; constants for monomer to dimer (1,2) and dimer to tetramer (2,4)
[2] = biological target: the molecule itself; experiment: SEC + native gel or EMSA; hydroxyapatite homogeneously purified TP (first peak) on Sephadex G-100 in Buffer A (20 mM potassium phosphate pH 8.0, 1 mM DTT, 1 mM EDTA, 1 mM PMSF), 4°C, calibrated with standard proteins; native-PAGE on 10% gel; native about 100 kDa against about 52 kDa on SDS-PAGE

B1: native human hepatic thymidine phosphorylase (enzyme, human (endogenous in liver), UniProt P19971 11-482, looked up)
chain: APPAPGDFSGEGSQGLPDPSPEPKQLPELIRMKRDGGRLSEADIRGFVAAVVNGSAQGAQIGAMLMAIRLRGMDLEETSVLTQALAQSGQQLEWPEAWRQQLVDKHSTGGVGDKVSLVLAPALAACGCKVPMISGRGLGHTGGTLDKLESIPGFNVIQSPEQMQVLLDQAGCCIVGQSEQLVPADGILYAARDVTATVDSLPLITASILSKKLVEGLSALVVDVKFGGAAVFPNQEQARELAKTLVGVGASLGLRVAAALTAMDKPLGRCVGHALEVEEALLCMDGAGPPDLRDLVTTLGGALLWLSGHAGTQAQGAARVAAALDDGSALGRFERMLAAQGVDPGLARALCSGSPAERRQLLPRAREQEELLAPADGTVELVRALPLALVLHELGAGRSRAGEPLRLGVGAELLVDVGQRLRRGTPWLRVHRDGPALSGPQSRALQEALVLSDRAPFAAPSPFAELVLPPQQ
modifications: N-terminal blocked by an unknown moiety (neither N-formyl nor pyrrolidone carboxylic acid)
notes: thymidine phosphorylase / PD-ECGF, human liver, native subunit of about 50 kDa (49,882 by electrospray MS); DPSPEPKQ = 28-35; Native tissue protein; also called TP; human liver TP; source: purified from human liver (autopsy material) by DEAE-cellulose, Phenyl Sepharose CL-4B and hydroxyapatite chromatography; also used as DEAE-cellulose partially purified fraction and as 50,000 x g liver cytosol
B1 was tested, and the “Ka (1,2), monomer to dimer” value [1] was 581000 M⁻¹, the “Ka (2,4), dimer to tetramer” value [1] was 10100 M⁻¹ and the “stoichiometry N” value [2] was 2.

From paper PMC6107277, “Distinct substrate specificity and physicochemical characterization of native human hepatic thymidine phosphorylase” (PLoS ONE, 2018)
